Target: His6-SUMO tagged H3.3 (human, UniProt P84243 1-136)
Assay: native gel or EMSA

B1: human histone H3.Y (natural protein)
chain: not shown
binding result: binds

Source: paper PMC5291245 (Nucleic Acids Research, 2016)
